In the supplement of paper PMC12764529:
± gives the half width of the 95% confidence interval.

Assays:
[1] = folding stability dG unfold (combined trypsin and chymotrypsin); higher = more stable
Procedure, shortened: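 Only designs with AlphaFold2 dimer inter-PAE above 15 were retained; each was a mini-protein under 80 residues with no cysteine, in a PA-tagged cDNA display construct. After digestion with trypsin and chymotrypsin and sequencing, K50 was inferred by Bayesian fitting of counts, and unfolding free energy was derived per protease or combined against a sequence-predicted unfolded-state K50 and a shared folded-state K50.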

[2] = folding stability dG unfold from trypsin proteolysis; higher = more stable
Procedure: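 Folding stability of de novo designed mini-proteins (<80 aa, no Cys; designed by TrROS, TrMRF, ProteinMPNN and the joint model) was measured by cDNA display proteolysis with trypsin and chymotrypsin. Each protease was used at 11 concentrations in a threefold dilution series plus a no-protease condition. K50 was inferred by Bayesian fitting of sequencing counts, and dG unfold was derived against a sequence-predicted unfolded-state K50 (Tsuboyama et al. method). Sequences shown include variable-length N-terminal GS-type padding (SAGGSAGG...) inside a display construct carrying a PA tag. Rows were kept only if the AF2 dimer inter-PAE was >15, to exclude likely homo-oligomers.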

For “KTIEIMIPMEQMRNNKPIPADQFLKELAQEFGGPNVKPKVEPMPDNMMKATITLPNGRKIEITDPGAIKIKS [r1_168_TrROS]”, the “folding stability dG unfold” value [1] was < -1 kcal/mol and the “folding stability dG unfold” value [2] was -0.43 ± 0.57 kcal/mol.

With “MEEVTIEIEVKGLSEEEIKELAEKLAEELREAGYEVEITKVEVLPDGSVKVTIKVRKGMSEEELKKLLEKLS [r1_485_TrROS_Hall]” the “folding stability dG unfold” value [2] was 3.65 ± 0.36 kcal/mol.

In the case of “SADFKPEGPSNNALVWKNPNSGKMFMIYPSDDNIEVQEIEYDPGNNKPEPETERVPLPEDDRDDLKDLLSAG [r14_245_TrROS]”, the “folding stability dG unfold” value [1] is reported as < -1 kcal/mol and the “folding stability dG unfold” value [2] is reported as -0.663 ± 0.14 kcal/mol.

With “SAGAGTVASPEEAEELVEELRAALPPEATITRDPTPEGGVRFTVRLPGEGRVLEMEFDPARDTTARRPESAG [r5_358_JUSTAS]” the “folding stability dG unfold” value [1] was < -1 kcal/mol and the “folding stability dG unfold” value [2] was -0.391 ± 0.083 kcal/mol.

With “SAGGEPIKIKIDSVQEQPNPDGGPYLYVKITYPDGGRQTGMFDSPEDFKSQLEGEPGFKKIEIEPIRSAGGS [r16_757_TrROS]” the “folding stability dG unfold” value [1] was < -1 kcal/mol and the “folding stability dG unfold” value [2] was -0.839 ± 0.52 kcal/mol.

In the case of “SAGGGAEEEAKKIAEELEKIGGVKKVEVEVKPKPDDSVEVKVKVEFEPPKPPKPPVVELPENGELVFKSAGG [r13_957_TrMRF]”, the “folding stability dG unfold” value [1] is reported as < -1 kcal/mol and the “folding stability dG unfold” value [2] is reported as -0.0749 ± 0.21 kcal/mol.

With “SAGGGKIVFTEGYLLAEFPPTDLRVARPIPPDRPELALEEVADAFIAEMEAEFGFPPPEDVRVEVLASAGGS [r8_402_TrMRF]” the “folding stability dG unfold” value [1] was -0.0645 ± 0.2 kcal/mol and the “folding stability dG unfold” value [2] was 0.28 ± 0.058 kcal/mol.

For “SAGGGMVERTETVTVPLSDVLAGRPPTPEAIAAARFPDTAEVTLETTEVPEDDTVTVTLTVRVPPELLSAGG [r13_862_JUSTAS]”, the “folding stability dG unfold” value [1] was -0.0656 ± 0.21 kcal/mol and the “folding stability dG unfold” value [2] was 0.472 ± 0.069 kcal/mol.

For “SAGGKVEIYNPNGQWKEITPEDLEGLKPGTIWQMPNGPVMIEIPGNDETIPIPMDSPNDIKDAIKDALSAGG [r13_962_TrROS]”, the “folding stability dG unfold” value [1] was -0.183 ± 0.18 kcal/mol and the “folding stability dG unfold” value [2] was 0.246 ± 0.066 kcal/mol.

With “SAGGMTIVKPSDGTPQFIEDEEAEKLVKELEEKGLLKKEKPGDITIPLPTVDPVTGKPRTTTITILPESSAG [r5_243_JUSTAS]” the “folding stability dG unfold” value [1] was < -1 kcal/mol and the “folding stability dG unfold” value [2] was -0.962 ± 0.14 kcal/mol.

For “SAGGMVEIDPNPRVITVTDPSSSKVTKLNLPFPPDEVEKVTVLPDGTIAVYVPATGETIEVPLSELGSAGGS [r16_410_JUSTAS]”, the “folding stability dG unfold” value [1] was -0.774 ± 0.33 kcal/mol and the “folding stability dG unfold” value [2] was -0.136 ± 0.22 kcal/mol.

With “SAGGMVTVERGPENRVITITLPPSVPEKVDELAAKLGTDYVTTEPLPEGDLVRYTIYVPGDNPALLESAGGS [r16_479_JUSTAS]” the “folding stability dG unfold” value [1] was -0.948 ± 0.41 kcal/mol and the “folding stability dG unfold” value [2] was 0.0152 ± 0.12 kcal/mol.

With “SAGGMVVRTPDGSTVEITVTDPASGSPYRSTDPGGGVEAAIAAINASPAYPNATVSITRYDAGTASPASAGG [r13_914_JUSTAS]” the “folding stability dG unfold” value [1] was -0.485 ± 0.16 kcal/mol and the “folding stability dG unfold” value [2] was -0.286 ± 0.1 kcal/mol.

In the case of “SAGGNWRPVERPIPIEPGMPPEEFIDEIADELPPGWRIDKPEPHPDNNYFKITVYDPNDGNQVEILFSAGGS [r16_250_TrROS]”, the “folding stability dG unfold” value [1] is reported as 0.122 ± 0.25 kcal/mol and the “folding stability dG unfold” value [2] is reported as 0.363 ± 0.15 kcal/mol.

For “SAGGPKLYIMIPPELRDNFPDIEIRPVEIPDDNIEIEIKFPGKKVTFPIYIFDPDGKIVEPQTITIEPSAGG [r13_129_TrROS]”, the “folding stability dG unfold” value [1] was 0.226 ± 0.27 kcal/mol and the “folding stability dG unfold” value [2] was 0.501 ± 0.076 kcal/mol.

For “SAGGPSAENLVEGDKVLLLIPLGDGPERRLELPLPDGRPVVVEVEPDRPGLITVTIPETGKPIVLPLSAGGS [r16_198_TrMRF]”, the “folding stability dG unfold” value [1] was < -1 kcal/mol and the “folding stability dG unfold” value [2] was -0.489 ± 0.086 kcal/mol.

With “SAGGSAEEKAKAIKEELEKKGEVKKVTVTIEPTPENSTKVTVEIEKEPKPKPKEYKYTELPNGKKVILSAGG [r13_957_JUSTAS]” the “folding stability dG unfold” value [1] was < -1 kcal/mol and the “folding stability dG unfold” value [2] was -0.416 ± 0.12 kcal/mol.

In the case of “SAGGSAEKPTATLRPVVLNYPEGPISRDPSGNVVNSPEELAKEVKEEILKKTGLPVEEIVVLVEPPSAGGSA [r15_415_JUSTAS]”, the “folding stability dG unfold” value [1] is reported as < -1 kcal/mol and the “folding stability dG unfold” value [2] is reported as -0.739 ± 0.061 kcal/mol.

With “SAGGSAGGAEELAEELERALPEGEVTEVRVEVVELPEGEPEVVVTVRVKRDGKEVKELPVIRVPSAGGSAGG [r6_630_TrROS_Hall]” the “folding stability dG unfold” value [1] was -0.997 ± 0.44 kcal/mol and the “folding stability dG unfold” value [2] was -0.492 ± 0.16 kcal/mol.

With “SAGGSAGGAVPSYIKDIETIPETSALIVNAESEEIVKEFLEKLGLKIESKEVDEDKIILPAKIESAGGSAGG [r6_381_JUSTAS]” the “folding stability dG unfold” value [1] was 0.0269 ± 0.35 kcal/mol and the “folding stability dG unfold” value [2] was 0.774 ± 0.099 kcal/mol.

With “SAGGSAGGEKKYEVVEKKELTLEDIEKADEILVVGKDGKVFKSRDDVKAAAEKGEKITVYVVKKSAGGSAGG [r6_827_TrROS_Hall]” the “folding stability dG unfold” value [1] was < -1 kcal/mol and the “folding stability dG unfold” value [2] was 0.0471 ± 0.46 kcal/mol.
